T1: XtrLin28b CSD (Xenopus tropicalis, UniProt B4F6I0 27-114)
T1 sequence: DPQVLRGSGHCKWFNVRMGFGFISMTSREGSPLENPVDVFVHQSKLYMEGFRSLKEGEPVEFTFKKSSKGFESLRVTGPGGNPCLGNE

T2: XtrLin28b CSD W39A (Xenopus tropicalis, UniProt B4F6I0 27-114, W39A)
T2 sequence: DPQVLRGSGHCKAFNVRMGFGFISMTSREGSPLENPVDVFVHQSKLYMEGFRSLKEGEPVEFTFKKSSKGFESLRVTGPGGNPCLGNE

T3: XtrLin28b ZKD (Xenopus tropicalis, UniProt B4F6I0 125-175)
T3 sequence: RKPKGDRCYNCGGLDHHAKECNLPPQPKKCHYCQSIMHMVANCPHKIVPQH

T4: XtrLin28b CSD F48A (Xenopus tropicalis, UniProt B4F6I0 27-114, F48A)
T4 sequence: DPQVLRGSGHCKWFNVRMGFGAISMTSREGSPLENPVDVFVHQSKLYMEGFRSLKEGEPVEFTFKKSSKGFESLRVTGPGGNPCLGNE

T5: XtrLin28b ZKD H155A (Xenopus tropicalis, UniProt B4F6I0 125-175, H155A)
T5 sequence: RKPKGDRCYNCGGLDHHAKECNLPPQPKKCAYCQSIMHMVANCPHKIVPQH

T6: XtrLin28b ZKD Y133A (Xenopus tropicalis, UniProt B4F6I0 125-175, Y133A)
T6 sequence: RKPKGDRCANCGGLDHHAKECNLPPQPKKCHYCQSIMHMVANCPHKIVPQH

T7: XtrLin28b CSD F66A (Xenopus tropicalis, UniProt B4F6I0 27-114, F66A)
T7 sequence: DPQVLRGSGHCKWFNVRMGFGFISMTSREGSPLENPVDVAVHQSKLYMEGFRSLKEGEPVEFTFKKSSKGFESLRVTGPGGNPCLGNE

T8: XtrLin28b CSD F77A (Xenopus tropicalis, UniProt B4F6I0 27-114, F77A)
T8 sequence: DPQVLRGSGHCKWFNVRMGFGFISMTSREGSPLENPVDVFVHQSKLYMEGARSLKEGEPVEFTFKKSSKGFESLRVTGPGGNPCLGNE

T9: XtrLin28b CSD H68A (Xenopus tropicalis, UniProt B4F6I0 27-114, H68A)
T9 sequence: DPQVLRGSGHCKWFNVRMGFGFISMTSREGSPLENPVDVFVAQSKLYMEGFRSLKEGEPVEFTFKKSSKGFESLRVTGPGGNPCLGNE


biological target: T1, XtrLin28b CSD; assay: ITC

**Q.** For GGUCACAC (ssRNA) [rlet-7f4], which Kd is on record?
**A.** Its Kd is 66 ± 9 nM.

**Q.** Does GAAAAAA (ssRNA) [rGA6] bind?
**A.** Result: no binding

**Q.** With GUUUUUU (ssRNA) [rG1] as the binder, how does the Kd read?
**A.** Its Kd is 35 ± 2 nM.

**Q.** How did the Kd turn out when GUCACAC (ssRNA) [rlet-7f (rlet-7f0)] was run?
**A.** The Kd was 46 ± 3 nM.

**Q.** How did the Kd turn out when GUCAUAC (ssRNA) [rlet-7f1] was run?
**A.** The Kd was 13 ± 2 nM.

**Q.** Which Kd does the source give for UUUUUUU (ssRNA) [rU7] here?
**A.** Its Kd is 530 ± 65 nM.

**Q.** Which Kd does the source give for GUCUUUU (ssRNA) [rG1b] here?
**A.** Its Kd is 27 ± 3 nM.

**Q.** Which Kd does the source give for GACAAAC (ssRNA) [rlet-7f3] here?
**A.** Its Kd is 1360 ± 600 nM.

**Q.** For GUCACACC (ssRNA) [rlet-7f5], which Kd is on record?
**A.** The Kd was 18 ± 2 nM.

**Q.** Which Kd does the source give for GGUCACACC (ssRNA) [rlet-7f6] here?
**A.** Its Kd is 21 ± 4 nM.

**Q.** For GUCAAAC (ssRNA) [rlet-7f2], which Kd is on record?
**A.** Its Kd is 54 ± 9 nM.

biological target: T2, XtrLin28b CSD W39A; assay: ITC

**Q.** How did the Kd turn out when GUCACACC (ssRNA) [rlet-7f5] was run?
**A.** The Kd was 1130 ± 110 nM.

biological target: T3, XtrLin28b ZKD; assay: ITC

**Q.** For AAAGAAAA (ssRNA) [rZ7], which Kd is on record?
**A.** Its Kd is 6800 ± 2100 nM.

**Q.** Does AAGGGGAA (ssRNA) [rZ8] bind?
**A.** Result: no binding

**Q.** For AAGGAGAA (ssRNA) [rZ1], which Kd is on record?
**A.** Its Kd is 45 ± 4 nM.

**Q.** For AAGGUGAA (ssRNA) [rZ2], which Kd is on record?
**A.** The Kd was 32 ± 2 nM.

**Q.** How did the Kd turn out when AAGAAGAA (ssRNA) [rZ4] was run?
**A.** Its Kd is 600 ± 170 nM.

**Q.** Does UUUUUUU (ssRNA) [rU7] bind?
**A.** Result: no binding

**Q.** Does AAGGAAAA (ssRNA) [rZ6] bind?
**A.** Result: no binding

**Q.** For AAAGAGAA (ssRNA) [rZ3], which Kd is on record?
**A.** The Kd was 200 ± 30 nM.

**Q.** Does AAAAAAAA (ssRNA) [rA8] bind?
**A.** Result: no binding

biological target: T4, XtrLin28b CSD F48A; assay: ITC

**Q.** Which Kd does the source give for GUCACACC (ssRNA) [rlet-7f5] here?
**A.** Its Kd is 1610 ± 340 nM.

biological target: T5, XtrLin28b ZKD H155A; assay: ITC

**Q.** How did the Kd turn out when AAGGAGAA (ssRNA) [rZ1] was run?
**A.** Its Kd is 2600 ± 600 nM.

biological target: T6, XtrLin28b ZKD Y133A; assay: ITC

**Q.** Which Kd does the source give for AAGGAGAA (ssRNA) [rZ1] here?
**A.** The Kd was 2200 ± 700 nM.

biological target: T7, XtrLin28b CSD F66A; assay: ITC

**Q.** GUCACACC (ssRNA) [rlet-7f5] was tested. Which Kd did it give?
**A.** Its Kd is 1440 ± 200 nM.

biological target: T8, XtrLin28b CSD F77A; assay: ITC

**Q.** For GUCACACC (ssRNA) [rlet-7f5], which Kd is on record?
**A.** The Kd was 1180 ± 60 nM.

biological target: T9, XtrLin28b CSD H68A; assay: ITC

**Q.** How did the Kd turn out when GUCACACC (ssRNA) [rlet-7f5] was run?
**A.** The Kd was 540 ± 50 nM.

biological target: T1, XtrLin28b CSD; assay: Trp fluorescence titration

**Q.** TATTTTT (ssDNA) [dA2] was tested. Which Kd did it give?
**A.** Its Kd is 311 ± 24 nM.

**Q.** With TTTTTTG (ssDNA) [dG7 (position 7)] as the binder, how does the Kd read?
**A.** Its Kd is 80 ± 10 nM.

**Q.** How did the Kd turn out when ATTTTTT (ssDNA) [dA1] was run?
**A.** The Kd was 84 ± 5 nM.

**Q.** How did the Kd turn out when TTTTTTTT (ssDNA) [dT8] was run?
**A.** The Kd was 32 ± 1 nM.

**Q.** TTTGTTT (ssDNA) [dG4] was tested. Which Kd did it give?
**A.** The Kd was 119 ± 16 nM.

**Q.** For GTTTTTT (ssDNA) [dG1], which Kd is on record?
**A.** Its Kd is 12 ± 1 nM.

**Q.** How did the Kd turn out when TTTTTTTTT (ssDNA) [dT9] was run?
**A.** The Kd was 44 ± 3 nM.

**Q.** With TTTTATT (ssDNA) [dA5] as the binder, how does the Kd read?
**A.** The Kd was 176 ± 8 nM.

**Q.** With TTTATTT (ssDNA) [dA4] as the binder, how does the Kd read?
**A.** The Kd was 124 ± 12 nM.

**Q.** TTTTTGT (ssDNA) [dG6] was tested. Which Kd did it give?
**A.** Its Kd is 81 ± 10 nM.

**Q.** With TTCTTTT (ssDNA) [dC3] as the binder, how does the Kd read?
**A.** The Kd was 71 ± 3 nM.

**Q.** For TTTTCTT (ssDNA) [dC5], which Kd is on record?
**A.** Its Kd is 154 ± 26 nM.

**Q.** Which Kd does the source give for TCTTTTT (ssDNA) [dC2] here?
**A.** The Kd was 137 ± 22 nM.

**Q.** How did the Kd turn out when TTTTT (ssDNA) [dT5] was run?
**A.** Its Kd is 680 ± 40 nM.

**Q.** With TTTCTTT (ssDNA) [dC4] as the binder, how does the Kd read?
**A.** The Kd was 73 ± 6 nM.

**Q.** For TTGTTTT (ssDNA) [dG3], which Kd is on record?
**A.** The Kd was 139 ± 8 nM.

**Q.** TTTTTCT (ssDNA) [dC6] was tested. Which Kd did it give?
**A.** Its Kd is 87 ± 14 nM.

**Q.** Which Kd does the source give for TTATTTT (ssDNA) [dA3] here?
**A.** The Kd was 137 ± 10 nM.

**Q.** Which Kd does the source give for TTTTGTT (ssDNA) [dG5] here?
**A.** The Kd was 45 ± 4 nM.

**Q.** With TTTTTTT (ssDNA) [dT7] as the binder, how does the Kd read?
**A.** Its Kd is 59 ± 5 nM.

**Q.** TTTTTT (ssDNA) [dT6] was tested. Which Kd did it give?
**A.** The Kd was 169 ± 30 nM.

**Q.** Does AAAAAAA (ssDNA) [dA7 (heptaadenosine)] bind?
**A.** Result: no binding

**Q.** How did the Kd turn out when TTTTTAT (ssDNA) [dA6] was run?
**A.** The Kd was 147 ± 15 nM.

**Q.** With TTTTTTC (ssDNA) [dC7] as the binder, how does the Kd read?
**A.** The Kd was 59 ± 4 nM.

**Q.** How did the Kd turn out when TTTTTTA (ssDNA) [dA7 (position 7)] was run?
**A.** Its Kd is 113 ± 15 nM.

**Q.** With TGTTTTT (ssDNA) [dG2] as the binder, how does the Kd read?
**A.** Its Kd is 39 ± 4 nM.

**Q.** Which Kd does the source give for CTTTTTT (ssDNA) [dC1] here?
**A.** The Kd was 45 ± 4 nM.

**Q.** Does GGGGGGG (ssDNA) [dG7 (heptaguanosine)] bind?
**A.** Result: no binding

Reference: article PMC3424542
